In the assay the target is T1, P9-CCR7 (human, UniProt P32248 25-378).
T1 sequence: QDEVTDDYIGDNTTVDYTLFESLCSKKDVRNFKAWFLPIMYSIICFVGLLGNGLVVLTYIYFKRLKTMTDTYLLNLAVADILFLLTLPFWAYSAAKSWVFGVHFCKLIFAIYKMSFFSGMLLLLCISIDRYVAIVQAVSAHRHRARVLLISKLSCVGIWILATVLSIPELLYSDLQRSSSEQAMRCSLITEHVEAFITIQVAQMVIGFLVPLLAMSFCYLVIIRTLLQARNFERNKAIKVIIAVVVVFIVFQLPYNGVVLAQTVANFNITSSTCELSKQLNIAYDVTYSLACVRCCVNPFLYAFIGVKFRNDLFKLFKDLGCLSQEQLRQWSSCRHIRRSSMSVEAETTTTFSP
Nature of the assay: ELISA. In general terms: An ELISA detects its analyte on a solid surface through an enzyme-linked reagent.

B1: CCL21-H6-Flag (ligand)
chain: SDGGAQDCCLKYSQRKIPAKVVRSYRKQEPSLGCSIPAILFLPRKRSQAELCADPKELWVQQLMQHLDKTPSPQKPAQGCRKDRGASKTGKKGKGSKGCKRTERSQTPKGP
As usually defined, the Kd is a measure of binding affinity in units of concentration. Read a low Kd as a tighter complex. On to B1, for which the Kd is 11 nM.

B2: CCL19-H6-Flag (ligand)
chain: GTNDAEDCCLSVTQKPIPGYIVRNFHYLLIKDGCRVPAVVFTTLRGRQLCAPPDQPWVERIIQRLQRTSAKMKRRSS
On to B2, for which the equilibrium dissociation constant (Kd) stood at 19 nM.
